These results are taken from patent US20140322218A1 (Amgen, published 2014).

Positions count from the first letter of the chain named. Numbers in names are those of the source.

To fix the notation:
T1: muCDH19(1-43)::FLAG::muCDH19(44-770)::huCDH19(271), on 293T cells (mouse/human chimera)
T1 construct: Entry holds leader (1-43), Flag tag and CDH19 part; leader left out; also called Hu EC3a
T1 chain: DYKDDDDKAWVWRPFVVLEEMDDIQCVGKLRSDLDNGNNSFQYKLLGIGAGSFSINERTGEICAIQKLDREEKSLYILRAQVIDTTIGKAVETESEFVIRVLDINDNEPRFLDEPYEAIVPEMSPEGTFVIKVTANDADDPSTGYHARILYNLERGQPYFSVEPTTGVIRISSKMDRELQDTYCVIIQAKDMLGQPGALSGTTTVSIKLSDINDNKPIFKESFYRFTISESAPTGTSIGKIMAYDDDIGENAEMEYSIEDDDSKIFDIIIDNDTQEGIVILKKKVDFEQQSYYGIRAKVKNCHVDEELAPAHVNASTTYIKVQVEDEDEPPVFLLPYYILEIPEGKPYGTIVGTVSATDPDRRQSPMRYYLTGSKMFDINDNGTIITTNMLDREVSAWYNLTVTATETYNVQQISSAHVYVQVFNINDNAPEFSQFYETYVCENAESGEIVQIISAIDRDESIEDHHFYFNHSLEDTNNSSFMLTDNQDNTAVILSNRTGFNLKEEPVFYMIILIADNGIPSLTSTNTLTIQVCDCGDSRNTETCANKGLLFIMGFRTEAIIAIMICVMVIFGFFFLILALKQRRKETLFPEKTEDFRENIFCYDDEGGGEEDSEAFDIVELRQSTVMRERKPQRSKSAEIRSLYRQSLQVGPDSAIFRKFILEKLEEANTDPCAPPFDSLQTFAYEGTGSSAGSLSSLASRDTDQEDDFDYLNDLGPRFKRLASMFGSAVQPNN

T2: rhCDH19(1-43)::FLAG::rhCDH19(44-141)::raCDH19(140-247)::rhCDH19(250-772), on 293T cells (rhesus macaque/rat chimera, UniProt Q9H159 44-772 (human entry))
T2 construct: Entry holds leader (1-43), Flag tag and CDH19 part; leader left out; also called ra EC2 (rhesus backbone)
T2 chain: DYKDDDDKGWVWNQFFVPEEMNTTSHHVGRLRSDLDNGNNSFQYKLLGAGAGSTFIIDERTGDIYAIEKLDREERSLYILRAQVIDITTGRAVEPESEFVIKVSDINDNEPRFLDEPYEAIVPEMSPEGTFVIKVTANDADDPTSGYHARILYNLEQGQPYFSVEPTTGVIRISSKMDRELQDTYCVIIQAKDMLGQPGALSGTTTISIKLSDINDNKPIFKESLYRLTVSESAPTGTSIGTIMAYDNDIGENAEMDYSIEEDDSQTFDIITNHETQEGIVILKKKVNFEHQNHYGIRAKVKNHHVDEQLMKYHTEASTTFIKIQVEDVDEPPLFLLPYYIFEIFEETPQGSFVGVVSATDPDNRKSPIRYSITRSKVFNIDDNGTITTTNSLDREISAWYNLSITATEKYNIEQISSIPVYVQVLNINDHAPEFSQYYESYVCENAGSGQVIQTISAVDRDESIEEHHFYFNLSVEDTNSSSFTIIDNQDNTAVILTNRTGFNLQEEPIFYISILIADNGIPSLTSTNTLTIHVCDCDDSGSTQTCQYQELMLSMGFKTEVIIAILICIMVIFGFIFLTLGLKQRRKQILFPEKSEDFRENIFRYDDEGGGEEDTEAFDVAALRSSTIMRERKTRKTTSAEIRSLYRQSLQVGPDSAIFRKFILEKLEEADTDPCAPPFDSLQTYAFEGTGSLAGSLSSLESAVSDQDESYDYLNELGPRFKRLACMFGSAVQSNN

T3: Cyno Cadherin-19 (cynomolgus monkey (Macaca fascicularis), UniProt Q9H159 44-772 (human entry))
T3 construct: also called cyno CDH19; cynomologous CDH-19
T3 chain: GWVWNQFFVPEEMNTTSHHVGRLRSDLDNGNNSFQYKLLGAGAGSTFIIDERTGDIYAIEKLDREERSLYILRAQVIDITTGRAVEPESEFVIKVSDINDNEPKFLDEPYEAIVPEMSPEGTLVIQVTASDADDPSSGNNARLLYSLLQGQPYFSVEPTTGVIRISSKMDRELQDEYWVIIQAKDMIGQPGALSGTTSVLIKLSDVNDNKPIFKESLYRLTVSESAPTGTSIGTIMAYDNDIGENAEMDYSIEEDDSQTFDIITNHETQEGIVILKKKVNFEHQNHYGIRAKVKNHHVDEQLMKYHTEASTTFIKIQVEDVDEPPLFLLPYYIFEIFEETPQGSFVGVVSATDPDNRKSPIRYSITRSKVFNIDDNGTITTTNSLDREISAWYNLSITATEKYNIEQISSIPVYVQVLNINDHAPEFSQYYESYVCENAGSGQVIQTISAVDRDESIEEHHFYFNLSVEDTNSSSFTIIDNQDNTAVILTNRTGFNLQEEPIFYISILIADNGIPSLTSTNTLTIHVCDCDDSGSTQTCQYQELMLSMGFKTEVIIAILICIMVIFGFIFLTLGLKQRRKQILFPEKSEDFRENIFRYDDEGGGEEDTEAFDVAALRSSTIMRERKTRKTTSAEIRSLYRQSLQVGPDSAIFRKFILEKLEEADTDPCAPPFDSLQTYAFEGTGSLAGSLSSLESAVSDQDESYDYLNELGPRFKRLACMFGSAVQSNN

B1: anti-CDH19 antibody 2G6 (Ab ID 13588) (antibody, human IgG1, lambda, V domains shown)
VH: QVQLVESGGGVVQPGRSLRLSCAASGFTFSSYGMHWVRQAPGKGLEWVAFIWYDGSNKYYADSVKDRFTISRDNSKNTLYLQMKSLRAEDTAVYYCARRAGIIGTIGYYYGMDVWGQGTTVTVSS
VL: SYELTQPPSVSVSPGQTASITCSGDRLGEKYTCWYQQRPGQSPLLVIYQDTKRPSGIPERFSGSNSGNTATLTISGTQAMDEADYYCQAWDSSTVVFGGGTKLTVLG
B2: hu anti-<huCDH19> 4B10 VH::huIgG1z / 4B10 VL::huKLC (Ab ID 13590) (antibody, V domains shown)
VH: QVQLVESGGGVVQPGRSLRLSCAASGFTFSSYDMHWVRQAPGKGLEWVAVISYDGTNEYYADSVKGRFTISRDTSKNTLYLQMNSLRAEDTAVYYCARERYFDWSFDYWGQGTLVSVSS
VL: EIVLTQSPGTLSLSPGERATLSCRASQSVSNTYLAWYHQRPGQAPRLLIYGASSRATGIPDRFSGSGSGTDFALTISSLEPEDFAVYYCQQYSNSWTFGQGTKVEIKR
B3: hu anti-<huCDH19> 4A9 VH::huIgG1z / 4A9 VL::huLLC-C1 (Ab ID 13589) (antibody, V domains shown)
VH: QVQLQESGPGLVKPSETLSLTCTVSGGSISGYYWSWIRQPPGKGLEWFAYFSYSGSTNYNPSLKSRVTLSVDTSKNQFSLKLSSVTAADTAVYYCARNWAFHFDFWGQGTLVTVSS
VL: QSVLTQPPSVSGAPGQRVTISCTGSSSNIGTGYAVHWYQQFPGTAPKLLIYGNNNRPSGVPDRFSGSKSGTSASLAITGLQAEDEADYYCQSYDSRLSGWVFGGGTKLTVLG
notes: Recombinant fully human IgG1
B4: hu anti-<huCDH19> 26D1.1 VH::huIgG1z / 26D1.1 VL::huLLC-C2 (Ab ID 13882) (antibody, V domains shown)
VH: QVQLVQSGAEVKKPGASVKVSCKASRYTFTSYYMSWVRQAPGQGLEWMGIIHPSGGDTTYAQKFQGRVTMTGDTSTSTVYMELSSLRSEDTAVYYCARGGIKLWLHFDYWGQGTLVTVSS
VL: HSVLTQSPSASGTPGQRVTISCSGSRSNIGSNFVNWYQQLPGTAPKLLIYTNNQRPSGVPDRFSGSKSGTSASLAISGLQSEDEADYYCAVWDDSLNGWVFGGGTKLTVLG
B5: hu anti-<huCDH19> 25F8.1 (1-469)(F90Y) VH::huIgG1z / 25F8.1 (1-235)(K45Q,S102A,D111E) VL::huLLC-C2 (Ab ID 14096) (antibody, V domains shown)
VH: B4 VH with R26G, M34I, S35H, H52N, D57S, T59R, G72R, K102Q
VL: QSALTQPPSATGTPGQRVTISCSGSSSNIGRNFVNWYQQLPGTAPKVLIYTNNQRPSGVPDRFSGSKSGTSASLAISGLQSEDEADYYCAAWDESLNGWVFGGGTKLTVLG
notes: Engineered variant of 25F8
B6: anti-CDH19 antibody 4A2 (Ab ID 13592) (antibody, human IgG1, kappa, V domains shown)
VH: QVQLQESGPGLVKPSQTLSLTCTVSGGSISSSGYYWSWIRQHPGKGLEWIGYIYYTGSAYYNPSLKSRVTISVDTSKNQFSLKLSSVTAADTAVYYCARDGSSGWYFQYWGQGTLVTVSS
VL: EIVLTQSPGTLSLSPGERATLSCRASRNISSSYLAWYQQKPGQAPRLLIYGPSSRATGIPDRFSGSGSGTDFTLTISRLEPEDFTVYYCQQYGSSFTFGPGTKVDIKR

The first test has as its target T1, muCDH19(1-43)::FLAG::muCDH19(44-770)::hu …. Nature of the test: FACS, transfected 293T. Background: A flow cytometer gives signals particle by particle.
As for B1, the binding result was “binds”.
Regarding B2, the binding result is on record as “no binding (tested: 5 ug/ml)”.

The target in another test is T4, huCDH19(44-141)::muCDH19(140-770), Flag-tagged, on 293T cells (human/mouse chimera).
T4 construct: also called Hu EC1
Description: FACS, transfected 293T.
Description: (§1) The experiment included assaying the anti-CDH19 antibodies against mouse Cadherin19 to determine suitability for binning on these human/mouse chimeras.
In the case of B1, the binding result was “binds”.
As to B3, the binding result is on record as “binds”.
For B4, the binding result is “binds”.

Another test addresses T5, huCDH19(44-249)::muCDH19(248-770), Flag-tagged, on 293T cells (human/mouse chimera).
T5 construct: also called Hu EC1-2; C137896
Nature of the test: FACS, transfected 293T.
Description: as §1
Take B1: the binding result is reported as “binds”.
Consider B3, for which the binding result is reported as “binds”.
For the molecule B4, the binding result was “binds”.

Another test has as its target T2, rhCDH19(1-43)::FLAG::rhCDH19(44-141)::ra …. Nature of the test: FACS, transfected 293T.
Description: The following binding assay was completed in presence of 2 mM CaCl2. […] Cells were then washed one time and the amount of cell associated Alexa647-labelled Ab was quantitated by flow cytometry. The experiments included mock transfected controls.
As for B3, the binding result is reported as “no binding (tested: 5 ug/ml)”.
With B5, the binding result is given as “no binding (tested: 5 ug/ml)”.
For the molecule B4, the binding result is given as “no binding (tested: 5 ug/ml)”.

A further test concerns the target T3, Cyno Cadherin-19. Description: FACS, recombinant cyno CDH19.
As to B1, the binding result was “binds”.
As for B6, the binding result is listed as “binds”.
As to B2, the binding result was “binds”.
On the same count and under the same terms, in the case of B3 it was “binds”; in that of B4, “binds”.
